Results published in patent US20260176336A1 (MESTAG THERAPEUTICS, published 2026).
Read-outs that look alike come from different tables or passages of the source.

Legend:
[1] = molecular target: T1, human LTBR endogenously expressed on cells (HepG2, A549, A375, HCC1187, RPMI-7951, primary human breast CAFs) (human, UniProt P36941 31-435); experiment: cell-based or functional assay
[2] = molecular target: T1, human LTBR endogenously expressed on …; experiment: cell-based or functional assay; remark: listed apart in the source
[3] = molecular target: T1, human LTBR endogenously expressed on …; experiment: cell-based or functional assay; remark: listed apart in the source
[4] = molecular target: T1, human LTBR endogenously expressed on …; experiment: flow cytometry, A549 cells
Experimental: (§1) The ability of VHH-Fc fusion proteins to bind to endogenously expressed LTBR on the A549 tumor cell and to inhibit human LIGHT (Acro, cat. no LIT-H5242) binding to A549 cells was assessed. BHA10 was employed in the assay as a positive control. Recombinant human LIGHT was labelled with PE fluorochrome, using PE/R-Phycoerythrin Conjugation Kit—Lightning-Link® (Abcam, cat no ab102918), following the manufacturer's instructions. 1×10⁶ cells were resuspended in the FACS buffer (1% BSA, 0.1% Sodium Azide in PBS), and 50 ul was added to each well ([…]) of a 96-U bottom plate. The cells were washed and resuspended in 25 ul of antibody dilution (2× final concentration) followed by 0.5 h incubation at 4° C., 25 ul of PE labelled LIGHT at 48 nM (2× final concentration) in FACS buffer was subsequently added to the cells and additionally incubated for 1 h at 4° C. […] Next, cells were extensively washed and fixed with Paraformaldehyde Solution, 4% in PBS (Thermo Scientific, cat no J19943.K2) for 20 mins, following the manufacturer's instructions. The cells were then washed, resuspended in PBS, and read on Beckman Coulter CytoFLEX. The data were analysed using FloJo V10 and GraphPad Prism v9. The IC50 and EC50 values can be found in.

[5] = molecular target: T1, human LTBR endogenously expressed on …; experiment: flow cytometry, A549 cells; remark: listed apart in the source
Experimental: In short, 1×10⁶ cells were resuspended in the FACS buffer (1% BSA, 0.1% Sodium Azide in PBS), and 50 μl was added to each well (5×10⁴ cells/well) of a 96-U bottom plate. The cells were washed once and resuspended in 50 μl/well of FACS buffer containing a 1:3, 11-point series dilutions of constructs 4.1-4.6 and clones 4.8-4.9 followed by 1 h incubation at 4° C. […] Next, cells were washed and resuspended in FACS buffer and read on Beckman Coulter CytoFLEX. The data were analysed using FloJo V10 and GraphPad Prism v9. Clone 4.7 was tested for binding to A375 (LTBR positive cell line) and the HEK293-FAP overexpressing cell line, as described in examples 2.4 and 3.5. The EC50 values can be found in.

[6] = molecular target: T1, human LTBR endogenously expressed on …; experiment: flow cytometry, inhibition of PE-LIGHT (24 nM final) binding to A549 cells; competitor LIGHT; partial inhibition
Experimental: as §1

B1: BHA10 (antibody, V domains shown)
VH: QVQLVQSGAEVKKPGSSVKVSCKASGYTFTTYYLHWVRQAPGQGLEWMGWIYPGNVHAQYNEKFKGRVTITADKSTSTAYMELSSLRSEDTAVYYCARSWEGFPYWGQGTTVTVSS
VL: DIQMTQSPSSLSASVGDRVTITCKASQNVGINVAWYQQKPGKAPKSLISSASYRYSGVPSRFSGSGSGTDFTLTISSLQPEDFATYFCQQYDTYPFTFGQGTKVEIK
notes: as disclosed in WO2004002431; also called BHA10 (anti-LTBR); monospecific anti-LTBR agonist
HepG2 Reporter assay (NFKB activation-induced luciferase activity) EC50 [1]: 12 pM | HCC1187 chemokine induction assay (CCL19) EC50 [2]: 530 pM | HepG2 reporter assay EC50 (w/o cross-linking antibody) [3]: 52 pM | HepG2 reporter assay EC50 (with cross-linking antibody) [3]: 29 pM | EC50 [4]: 0.78 nM | EC50 [5]: 0.055 nM | IC50 [6]: 0.67 nM
